Test results as given in publication PMC2953525, “Subtle Alterations in PCNA-Partner Interactions Severely Impair DNA Replication and Repair” (PLoS Biology, 2010).

Experiments:
Experiment in all cases: Yeast two hybrid (Y2H) analysis of PCNA-partner interaction
Type in all cases: binding
Design in all cases: key: ++: major increase in growth; +: moderate increase in growth; similar growth as the WT PCNA-expressing cells; -: minor decrease in growth; --: moderate decrease in growth; ---: major decrease in growth
Conditions in all cases: spotting onto selective agar plates; PCNA fused to AD, partner to BD
Rfc1 = test system: Rfc1
Cdc9 = test system: Cdc9
Cac1 = test system: Cac1
Apn2 = test system: Apn2

Molecule	Y2H growth relative to WT PCNA-expressing strain: Rfc1 (Rfc1)	Y2H growth relative to WT PCNA-expressing strain: Cdc9 (Cdc9)	Y2H growth relative to WT PCNA-expressing strain: Cac1 (Cac1)	Y2H growth relative to WT PCNA-expressing strain: Apn2 (Apn2)
pol30-Msh6E6: PCNA mutant evolved for Msh6, IDCL sequence DYDKDLLKIIEL (protein, left off: Gal4 activation domain, end not stated, kept) MLEAKFEEASLFKRIIDGFKDCVQLVNFQCKEDGIIAQAVDDSRVLLVSLEIGVEAFQEYRCDHPVTLGMDLTSLSKILRCGNNTDTLTLIADNTPDSIILLFEDTKKDRIAEYSLKLMDYDKDLLKIIELQYDSTLSLPSSEFSKIVRDLSQLSDSINIMITKETIKFVADGDIGSGSVIIKPFVDMEHPETSIKLEMDQPVDLTFGAKYLLDIIKGSSLSDRVGIRLSSEAPALFQFDLKSGFLQFFLAPKFNDEE	WT	WT	WT	WT
pol30-Pol32E9 (protein, left off: Gal4 activation domain, end not stated, kept) MLEAKFEEASLFKRIIDGFKDCVQLVNFQCKEDGIIAQAVDDSRVLLVSLEIGVEAFQEYRCDHPVTLGMDLTSLSKILRCGNNTDTLTLIADNTPDSIILLFEDTKKDRIAEYSLKLMDNDVDSLKIIELQYDSTLSLPSSEFSKIVRDLSQLSDSINIMITKETIKFVADGDIGSGSVIIKPFVDMEHPETSIKLEMDQPVDLTFGAKYLLDIIKGSSLSDRVGIRLSSEAPALFQFDLKSGFLQFFLAPKFNDEE	WT	-	WT	WT
pol30-Rad30E9: PCNA mutant evolved for Rad30, IDCL sequence DNDWDFLKIDEL (protein, left off: Gal4 activation domain, end not stated, kept) MLEAKFEEASLFKRIIDGFKDCVQLVNFQCKEDGIIAQAVDDSRVLLVSLEIGVEAFQEYRCDHPVTLGMDLTSLSKILRCGNNTDTLTLIADNTPDSIILLFEDTKKDRIAEYSLKLMDNDWDFLKIDELQYDSTLSLPSSEFSKIVRDLSQLSDSINIMITKETIKFVADGDIGSGSVIIKPFVDMEHPETSIKLEMDQPVDLTFGAKYLLDIIKGSSLSDRVGIRLSSEAPALFQFDLKSGFLQFFLAPKFNDEE	WT	WT	WT	WT
pol30-Rad27E6: PCNA mutant evolved for Rad27, IDCL sequence DGDYDILKIREL (protein, left off: Gal4 activation domain, end not stated, kept) MLEAKFEEASLFKRIIDGFKDCVQLVNFQCKEDGIIAQAVDDSRVLLVSLEIGVEAFQEYRCDHPVTLGMDLTSLSKILRCGNNTDTLTLIADNTPDSIILLFEDTKKDRIAEYSLKLMDGDYDILKIRELQYDSTLSLPSSEFSKIVRDLSQLSDSINIMITKETIKFVADGDIGSGSVIIKPFVDMEHPETSIKLEMDQPVDLTFGAKYLLDIIKGSSLSDRVGIRLSSEAPALFQFDLKSGFLQFFLAPKFNDEE	WT	WT	+	WT
pol30-Pol32E5: PCNA mutant evolved for Pol32, IDCL sequence DADNDFLKISEL (protein, left off: Gal4 activation domain, end not stated, kept) MLEAKFEEASLFKRIIDGFKDCVQLVNFQCKEDGIIAQAVDDSRVLLVSLEIGVEAFQEYRCDHPVTLGMDLTSLSKILRCGNNTDTLTLIADNTPDSIILLFEDTKKDRIAEYSLKLMDADNDFLKISELQYDSTLSLPSSEFSKIVRDLSQLSDSINIMITKETIKFVADGDIGSGSVIIKPFVDMEHPETSIKLEMDQPVDLTFGAKYLLDIIKGSSLSDRVGIRLSSEAPALFQFDLKSGFLQFFLAPKFNDEE	WT	WT	WT	WT
pol30-Rad30E2: PCNA mutant evolved for Rad30, IDCL sequence DDDWDFLKILEL (protein, left off: Gal4 activation domain, end not stated, kept) MLEAKFEEASLFKRIIDGFKDCVQLVNFQCKEDGIIAQAVDDSRVLLVSLEIGVEAFQEYRCDHPVTLGMDLTSLSKILRCGNNTDTLTLIADNTPDSIILLFEDTKKDRIAEYSLKLMDDDWDFLKILELQYDSTLSLPSSEFSKIVRDLSQLSDSINIMITKETIKFVADGDIGSGSVIIKPFVDMEHPETSIKLEMDQPVDLTFGAKYLLDIIKGSSLSDRVGIRLSSEAPALFQFDLKSGFLQFFLAPKFNDEE	WT	WT	WT	-
pol30-Msh6E2: PCNA mutant evolved for Msh6, IDCL sequence DYDRDMLKISEL (protein, left off: Gal4 activation domain, end not stated, kept) MLEAKFEEASLFKRIIDGFKDCVQLVNFQCKEDGIIAQAVDDSRVLLVSLEIGVEAFQEYRCDHPVTLGMDLTSLSKILRCGNNTDTLTLIADNTPDSIILLFEDTKKDRIAEYSLKLMDYDRDMLKISELQYDSTLSLPSSEFSKIVRDLSQLSDSINIMITKETIKFVADGDIGSGSVIIKPFVDMEHPETSIKLEMDQPVDLTFGAKYLLDIIKGSSLSDRVGIRLSSEAPALFQFDLKSGFLQFFLAPKFNDEE	WT	WT	WT	WT
pol30-79: previously studied PCNA mutant with decreased partner binding, IDCL sequence DIDADFAKAEEL (protein, left off: Gal4 activation domain, end not stated, kept) MLEAKFEEASLFKRIIDGFKDCVQLVNFQCKEDGIIAQAVDDSRVLLVSLEIGVEAFQEYRCDHPVTLGMDLTSLSKILRCGNNTDTLTLIADNTPDSIILLFEDTKKDRIAEYSLKLMDIDADFAKAEELQYDSTLSLPSSEFSKIVRDLSQLSDSINIMITKETIKFVADGDIGSGSVIIKPFVDMEHPETSIKLEMDQPVDLTFGAKYLLDIIKGSSLSDRVGIRLSSEAPALFQFDLKSGFLQFFLAPKFNDEE	-	---	---	---
